The results in this text go back to article PMC10579966, “The NADH recycling enzymes TsaC and TsaD regenerate reducing equivalents for Rieske oxygenase chemistry” (The Journal of Biological Chemistry, 2023).

Substitutions are numbered along the chain they refer to. Names may count otherwise.

One data set concerns the target T1, TsaM (Comamonas testosteroni, UniProt P94679).
T1 construct: gene tsaM1; pET-28a(+)-TEV-tsaM, E. coli C41(DE3), purified as TsaC; trimer
T1 sequence (P94679 1-347): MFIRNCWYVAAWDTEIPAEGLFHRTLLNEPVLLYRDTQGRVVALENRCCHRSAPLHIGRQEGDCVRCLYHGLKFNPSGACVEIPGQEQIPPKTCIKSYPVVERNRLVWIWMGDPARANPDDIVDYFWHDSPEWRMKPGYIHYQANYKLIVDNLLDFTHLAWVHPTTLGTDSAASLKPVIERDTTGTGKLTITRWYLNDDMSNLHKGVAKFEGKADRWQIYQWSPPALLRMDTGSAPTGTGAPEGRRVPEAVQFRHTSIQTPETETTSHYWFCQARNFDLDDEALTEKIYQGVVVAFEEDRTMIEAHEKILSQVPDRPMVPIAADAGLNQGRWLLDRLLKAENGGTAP
The experiment in a line: LC-MS product formation and NADH consumption (A340). The settings on record: with reductase VanB, Fe(II), 30 °C. The class given is biochemical.

The target of data set [1] is T2, TsaC (Comamonas testosteroni, UniProt P94681).
T2 construct: gene tsaC1; N-terminal His6 tag with TEV site (residues -20 to -1, kept), codon-optimized, pET-28a(+)-TEV, E. coli C41(DE3); native residues 1-252; homotetramer
The experiment in a line: differential scanning fluorimetry. It is filed as binding. To be noted: 10 μM enzyme; NADH alone.

The target of data set [2] is T3, TsaC (Comamonas testosteroni, UniProt P94681, G149N).
T3 construct: gene tsaC1; N-terminal His6 tag with TEV site (residues -20 to -1, kept), codon-optimized, pET-28a(+)-TEV, E. coli C41(DE3); native residues 1-252; homotetramer
T3 sequence (P94681 whole entry G149N, the tested form may be a part): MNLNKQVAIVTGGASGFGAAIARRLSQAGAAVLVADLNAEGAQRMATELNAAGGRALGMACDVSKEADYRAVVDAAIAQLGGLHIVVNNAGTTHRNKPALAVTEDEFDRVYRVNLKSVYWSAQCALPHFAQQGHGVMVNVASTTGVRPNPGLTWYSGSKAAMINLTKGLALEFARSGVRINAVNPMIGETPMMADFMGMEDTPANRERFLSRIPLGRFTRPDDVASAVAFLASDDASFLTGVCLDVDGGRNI
The experiment in a line: GC-MS turnover. The class given is biochemical. The settings on record: 5 mM NAD+, 10 μM enzyme, 30 °C, 2 h.

In data set [3] the target is T4, TsaC (Comamonas testosteroni, UniProt P94681, T143Q/G149N).
T4 construct: gene tsaC1; N-terminal His6 tag with TEV site (residues -20 to -1, kept), codon-optimized, pET-28a(+)-TEV, E. coli C41(DE3); native residues 1-252; homotetramer
T4 sequence (P94681 whole entry T143Q/G149N, the tested form may be a part): as the sequence (P94681 whole entry G149N, the tested form may be a part) above, with T143Q counted along it
Nature of the data set: GC-MS turnover. The class given is biochemical. To be noted: 5 mM NAD+, 10 μM enzyme, 30 °C, 2 h.

Substrate in data set [4]: O=Cc1ccc(C(=O)O)cc1
Nature of the data set: LC-MS steady-state kinetics. The class given is biochemical, Comamonas testosteroni. The settings on record: 2 mM NAD+, 30 °C. The source says: (§1) LC-MS steady-state kinetics on TsaD

Substrate in data set [5]: O=Cc1ccc(S(=O)(=O)O)cc1
Nature of the data set: LC-MS steady-state kinetics. The class given is biochemical, Comamonas testosteroni. To be noted: 2 mM NAD+, 30 °C.
Text: as §1

Data set [6] deals with the molecule itself. Nature of the data set: SEC; HiPrep 16/60 Sephacryl S200-HR, 50 mM Hepes pH 8.0, 200 mM NaCl, 5% glycerol.
Data set [7] deals with the molecule itself. The experiment in a line: SEC; gel filtration in the purification of TsaM, purified as described for TsaC; lysis buffer 50 mM Tris-HCl pH 7.2, 250 mM NaCl. (In gel filtration, larger molecules generally elute earlier.)
Substrate in data set [8]: O=C(O)c1ccc(CO)cc1
The experiment in a line: LC-MS steady-state kinetics. It is filed as biochemical, Comamonas testosteroni. To be noted: 2 mM NAD+, 30 °C. The source says:
(§2) LC-MS steady-state kinetics on TsaC

Substrate in data set [9]: O=Cc1ccc(C(=O)O)cc1
The experiment in a line: LC-MS steady-state kinetics. The settings on record: 2 mM NAD+, 30 °C, aldehyde hydrate proposed as the oxidized species. It is filed as biochemical, Comamonas testosteroni.
Text: as §2

Substrate in data set [10]: O=Cc1ccc(S(=O)(=O)O)cc1
Nature of the data set: LC-MS steady-state kinetics. It is filed as biochemical, Comamonas testosteroni. The settings on record: 2 mM NAD+, 30 °C, aldehyde hydrate proposed as the oxidized species.
Text: as §2

Substrate in data set [11]: O=S(=O)(O)c1ccc(CO)cc1
The experiment in a line: LC-MS steady-state kinetics. The settings on record: 2 mM NAD+, 30 °C. It is filed as biochemical, Comamonas testosteroni.
Text: as §2

Data set [12] concerns the molecule itself. The experiment in a line: crystal structure; hanging-drop vapor diffusion, 10 to 20 mg/ml protein with 2 mM NAD+, 0.2 M KCl, 20% PEG 3350, 10% glycerol, 293 K; two chains in the asymmetric unit, tetramer with two symmetry-related molecules; 2.18 A.
Data set [13] deals with the molecule itself. The experiment in a line: SEC-MALS; 15 ul of 90 uM protein, AdvanceBio 300A column, 50 mM Hepes pH 8.2, 200 mM NaCl, 5% glycerol, with either NAD+ or NADH, room temperature; about 0.3 uM at the apex of the largest peak.

Consider `Cc1ccc(S(=O)(=O)O)cc1` [4-methylbenzenesulfonate], for which the “LC-MS product formation and NADH consumption (A340)” value on TsaM is “more NADH is consumed in assays that contain 4-methylbenzenesulfonate rather than 4-methylbenzoate”.

`NC(=O)C1=CN([C@@H]2O[C@H](COP(=O)(O)OP(=O)(O)OC[C@H]3O[C@@H](n4cnc5c(N)ncnc54)[C@H](O)[C@@H]3O)[C@@H](O)[C@H]2O)C=CC1` [NADH]: on TsaC [1], the thermal shift (ΔTm) (commonly the shift of the melting midpoint relative to a reference) was 12.4 °C.

As for `C[C@H](O)[C@@H](C)O` [meso-2,3-butanediol], the GC-MS turnover result is “both the G149N and T143Q/G149N variants of TsaC show a significantly improved ability” at TsaC [2]; “T143Q/G149N variants of TsaC show a significantly improved ability to transform meso-2,3-butanediol into 3-hydroxy-2-butanone” on TsaC [3].

With `Cc1ccc(C(=O)O)cc1` [4-methylbenzoate], at TsaM, the “LC-MS product formation and NADH consumption (A340)” value was “TsaM and VanB consume more 4-methylbenzenesulfonate than 4-methylbenzoate”.

B1: TsaD (wild type), aldehyde dehydrogenase of the TsaMBCD pathway (enzyme, Comamonas testosteroni, UniProt P94682 1-476, looked up)
chain: MSTVLYRCPELLIGGEWRPGRHEQRLVVRNPATGEPLDELRLASADDLQLALQTTQQAFEHWRQVPAHERCARLERGVARLRENTERIAHLLTLEQGKTLAEARMECAMAADLIKWYAEEARRVYGRVIPARLPNSRMEVFKFPVGPVAAFSPWNFPLVLSARKLGGAIAAGCSIVLKAAEETPASVAAMVDCLNQELPPGVVQLLYGVPAEVSQALIASPVVRKVTFTGSVPVGRHLAELSARHLKRITLELGGHAPVIVCGDADIARTVNLMVQHKFRNAGQACLAPTRFFVDRRIYGDFVDAFGATQALRVGAGMAAETQMGPVASARRQAAVQDLIARSVAAGARPVASAVPEAGYFVAPTLLADVPLDAPVMSEEPFGPVACAVPFDSLDQAIAQANHNPYGLAGYLFTDSAKAILAVSERLEVGSLAVNGMGVSVPEAPFGGVKDSGYGSESGTEGMEAFLDTKFMHYVA
notes: TsaD, Comamonas testosteroni, codon-optimized synthetic gene in pMCSG9; Expression followed the TsaC protocol with ampicillin; also called untagged TsaD; source: E. coli, purified (MBPTrap, TEV cleavage, HisTrap HP flow-through, Sephacryl S200-HR gel filtration); not shown: MBP, N-terminal, cleaved; His6, N-terminal, cleaved
With B1, in data set [4], the Km – broadly, the concentration of substrate that gives half-maximal velocity – was determined as 21 ± 6.9 µM; the maximal velocity (Vmax) (commonly the top rate of the reaction or transport when substrate is in excess) is 13 µM/min; the kcat (in general, the number of substrate molecules converted per active site and unit of time at saturation) was determined as 0.105 ± 0.00983 s⁻¹; the kcat/Km (usually the turnover number divided by the Michaelis constant) turned out to be 5000 ± 1700 M⁻¹ s⁻¹. In data set [5], the Michaelis-Menten constant (Km) was found to be 16 ± 2.5 µM, the Vmax was determined as 13 µM/min, the kcat is 0.112 ± 0.00517 s⁻¹ and the catalytic efficiency (kcat/Km) stood at 6900 ± 1100 M⁻¹ s⁻¹. In addition, the stoichiometry N (in general, the number of molecules, sites or subunits per partner or assembly) in data set [6] came to 2.

B2: TsaM (wild type), Rieske oxygenase of the TsaMBCD pathway (enzyme, Comamonas testosteroni, UniProt P94679 1-347, looked up)
chain: T1 sequence (P94679 1-347)
notes: TsaM, Comamonas testosteroni, in pET-28a(+)-TEV-tsaM; also called wild-type TsaM; source: E. coli C41(DE3), purified as described for TsaC (gel filtration)
For the molecule B2, the “stoichiometry N” value in data set [7] was found to be 3.

B3: TsaC (wild type), short-chain dehydrogenase/reductase of the TsaMBCD pathway (enzyme, Comamonas testosteroni, UniProt P94681 1-252, looked up)
chain: MNLNKQVAIVTGGASGFGAAIARRLSQAGAAVLVADLNAEGAQRMATELNAAGGRALGMACDVSKEADYRAVVDAAIAQLGGLHIVVNNAGTTHRNKPALAVTEDEFDRVYRVNLKSVYWSAQCALPHFAQQGHGVMVNVASTTGVRPGPGLTWYSGSKAAMINLTKGLALEFARSGVRINAVNPMIGETPMMADFMGMEDTPANRERFLSRIPLGRFTRPDDVASAVAFLASDDASFLTGVCLDVDGGRNI
notes: TsaC, Comamonas testosteroni, codon-optimized synthetic gene in pET-28a(+)-TEV; native residues 1 (initial methionine) to 252 (the four C-terminal residues are 249 to 252); the His6 tag and TEV protease cleavage site are numbered -20 to -1; The tag and TEV site (residues -20 to -1) are present in the crystallised protein but disordered; no cleavage of the tag is described; also called wild-type …
Consider B3, for which, in data set [8], the Km was determined as 18 ± 2.8 µM, the maximal velocity (Vmax) was 12 µM/min, the kcat amounted to 0.0983 ± 0.00367 s⁻¹ and the kcat/Km turned out to be 5400 ± 870 M⁻¹ s⁻¹. Moreover, in data set [9], the Km stood at 23 ± 4.7 µM, the Vmax amounted to 13 µM/min, the kcat turned out to be 0.112 ± 0.00667 s⁻¹ and the kcat/Km worked out at 4800 ± 1000 M⁻¹ s⁻¹. Moreover, in data set [10], the Km was determined as 20 ± 3.5 µM, the Vmax turned out to be 15 µM/min, the kcat amounted to 0.125 ± 0.00583 s⁻¹ and the kcat/Km is 6200 ± 1100 M⁻¹ s⁻¹. Also, in data set [11], the Km was 13 ± 2.0 µM, the Vmax came to 12 µM/min, the turnover number (kcat) turned out to be 0.1 ± 0.004 s⁻¹ and the kcat/Km was 7900 ± 1300 M⁻¹ s⁻¹. Moreover, in data set [12], the “stoichiometry N” value was 4.

B4: Y155F TsaC variant (enzyme, Comamonas testosteroni, UniProt P94681 1-252, looked up)
chain: B3 chain with Y155F
notes: TsaC, Comamonas testosteroni, made by site-directed mutagenesis of pET-28a(+)-TEV-tsaC; same limits as the wild type (native residues 1 to 252); Expressed and purified as the wild type; source: E. coli C41(DE3), purified (HisTrap HP, Sephacryl S200-HR gel filtration)
With B4, the “stoichiometry N” value in [13] came out at 4.
